Measured values published in patent US6353153B1, “Enhanced transport with a plastid membrane transport protein” (priority 1996, dated 2002).

Key:
[1] = test system: β-lactamase transport in E. coli MM52 (secAts); assay: Sodium azide sensitivity of β-lactamase transport in MM52; assay type: cell-based, Escherichia coli; conditions: MM52 strain, 30° C., two hours, sodium azide 0 to 1 mM
Procedure: Overnight cultures of MM52-Bce44B, MM52-Oee1-Dhfr, MC4100-Bce44B, and MC4100-Oee1-Dhfr cells were used as inocula for parallel experiments. These freshly inoculated cultures were grown at 30° C. for two hours in media containing increasing concentrations of sodium azide (from 0 to 1 MM). Cells were then harvested, and normalized according to cell number before analysis. […] Azide sensitivity characteristics were firther assessed by growing both wild-type and mutant bacterial lines in the media containing 0.5 mM sodium azide for 0, 1 and 2 hr.
Sensitivity of the bacterial strains to sodium azide was determined in the same manner as outlined in Oliver el al. (1990) Proc. Natl. Acad. Sci. USA 87:8227. Changes to β-lactamase transport activity in response to sodium azide was used as a monitor of differences in the protein translocation activity of Bce44B- versus Oee1-Ohfr-expressing cells. […]
The pBCE44B and pOEEIDHFR plasmids were introduced into E. coli strain MM52 (Oliver and Beckwith, (1981) Cell 25:765) by electroporation using the BioRad Gene Pulser and the supplied protocols for E. coli strains. […] The plasmid-harboring MM52 strains were grown in LB-ampicillin broth and analyzed in the same manner as the JM109(DE3) strains described above.

Brassica napus = assay: Seed size of transgenic plants carrying the CaMV-Bce44B-NOS transgene; assay type: in vivo; conditions: primary generation of transgenic plants
Text: (§1) Transgenic plants (Brassica napus, Arabidopsis thaliana and Lycopersicon esculentum) with altered plastid protein transport capacity were produced by introducing a transgene construct consisting of DNA encoding the Bce44B protein and a 5′ untranslated region immediately upstream of the Bce44B coding sequence. Expression of the construct was obtained by linking the cauliflower mosaic virus 35S promoter (Odell, J. T. et al. (1985) Nature 313:810) upstream. Transcriptional termination was facilitated by the gene encoding nopaline synthase (NOS) found in Agrobacterium Ti plasmids or their derivatives such as pBI101 (Clontech). Construction of the 35S CAMV-Bce44B-NOS transgene construct is diagrammed in FIG. 6.
(§2) Agrobacterium strains containing the pEND4K-CAMV-Bce44B-NOS plasmid were used to transform plants following a leaf disc transformation protocol, such as the one described by Horsch et al. (1985) Science 227:1229), or by in planta methods which can include the seed transformation protocol reported by Feldmann and Marks (1987) Mol. Gen. Genet. […]

Lycopersicon esculentum = assay: as above; assay type: in vivo; conditions: primary generation of transgenic plants
Text: as §1, §2

B1: Bce44B: plastid transport protein, Brassica napus 44 kDa chloroplast envelope protein, member of Com44/Cim44, encoded by SEQ ID NO:1 (protein)
chain: MQTAMKTMMNQMNTQNSQFNNPGFPTGAGAGAGSPFPFPFPPQTSPTTSPFQPQSQSSGATVDLTATKVDRPPVSKPQPTPIPPTKSIEVYKPSVVVEENKAMKEEKNYAFEDVSPEETTKESPFSNYEEVSETSAPKETRLFDDVLQNGAAPANGATASDVFQSLGAGKGWAGGSVEVLEKMIEYPTFQKMLYPHLPEEMRNPESFKWVRKNPQYRQQLQDMLNNMSESGEWDKRMTETLKNFDPNSPEVKQGFDQLGLTPEEVISKIMENPDVSMAFQNPRVEAALMDCSENPMNIMKYQNDKEVMDVFNKISQLFPGLTG
With B1 the “sodium azide concentration at which precursor form of β-lactamase appears” value [1] was 0.25 to 0.375 mM, the “seed size relative to wildtype counterparts or pEND4K-only control plants” value (Brassica napus) was “approximately twice” and the “seed size relative to wildtype counterparts or pEND4K-only control plants” value (Lycopersicon esculentum) was “approximately twice”.
